Test results as given in publication PMC13541614 (Nature Methods, 2026).

Target: H5N1 influenza hemagglutinin (HA) of A/Vietnam/1203/2004, native (wild type) (Influenza A virus A/Vietnam/1203/2004 …, UniProt Q5EP31, strain)
Experiment: BLI
Details: both partners purified

B1: AZD3152 (anti-SARS-CoV-2 RBD antibody), IgG (antibody, V domains shown)
VH: EVQLVESGGGLVQPGRSLRLSCAASGFPFDDYAIHWVRLAPGKGLEWVSSISWDSGSIGYADSVKGRFTISRDNAKNSLYLQMNSLRAEDTALYYCAKGAFPGYSSGWYYGLEVWGQGTTVTVSS
VL: QSVVTQPPSASGSLGQSVTISCTGTSSDVGGYNYVSWYQQHPGKAPKLMIFEVSKRPSGVPDRFSGSKSGNTASLTVSGLQAEDEADYYCSSYAGNKGVFGGGTKLTVL
notes: also called control antibody; source: Expi293F, transfected, purified (HiTrap MabSelect PrismA); copies: 2 + 2
B1: no binding (tested: 100 nM).
